The data set concerns the molecule itself. Description: SEC. (In general: Size exclusion chromatography separates by hydrodynamic size, large species first.)

2 proteins from doi:10.1101/2021.05.19.444900 (bioRxiv, 2021) can be followed below.

B1: recombinant NAP1L1 (aa 69-391 of isoform 1) with N-terminal His-tag (domain or fragment)
chain: SLPRVVKRRVNALKNLQVKCAQIEAKFYEEVHDLERKYAVLYQPLFDKRFEIINAIYEPTEEECEWKPDEEDEISEELKEKAKIEDEKKDEEKEDPKGIPEFWLTVFKNVDLLSDMVQEHDEPILKHLKDIKVKFSDAGQPMSFVLEFHFEPNEYFTNEVLTKTYRMRSEPDDSDPFSFDGPEIMGCTGCQIDWKKGKNVTLKTIKKKQKHKGRGTVRTVTKTVSNDSFFNFFAPPEVPESGDLDDDAEAILAADFEIGHFLRERIIPRSVLYFTGEAIEDDDDDYDEEGEEADEEGEEEGDEENDPDYDPKKDQNPAECKQQ
Take B1: the binding result is recorded as “binds”.

B2: recombinant NAP1L4 (aa 2-375 of isoform 1) with N-terminal His-tag (natural protein)
chain: ADHSFSDGVPSDSVEAAKNASNTEKLTDQVMQNPRVLAALQERLDNVPHTPSSYIETLPKAVKRRINALKQLQVRCAHIEAKFYEEVHDLERKYAALYQPLFDKRREFITGDVEPTDAESEWHSENEEEEKLAGDMKSKVVVTEKAAATAEEPDPKGIPEFWFTIFRNVDMLSELVQEYDEPILKHLQDIKVKFSDPGQPMSFVLEFHFEPNDYFTNSVLTKTYKMKSEPDKADPFSFEGPEIVDCDGCTIDWKKGKNVTVKTIKKKQKHKGRGTVRTITKQVPNESFFNFFNPLKASGDGESLDEDSEFTLASDFEIGHFFRERIVPRAVLYFTGEAIEDDDNFEEGEEGEEEELEGDEEGEDEDDAEINPKV
As to B2, the binding result is “binds”.
